# Reference: US20250319216A1, “RADIOPHARMCEUTICAL COMPLEXES TARGETING PROSTATE-SPECIFIC MEMBRANE ANTIGEN AND ITS COMBINATIONS” (Bayer Aktiengesellschaft, priority 2022, published 2025)
# Marks after values point to notes of the source that are not given here.
# Tests used:
# 22Rv1 tumors = assay: In vivo efficacy in 22Rv1 prostate cancer model; parameters: species or system mice; conditions: 22Rv1, day 16
# Protocol: The in vivo antitumor efficacy of 225Ac-pelgi in combination with darolutamide was evaluated in the androgen-independent prostate cancer model 22Rv1.
# [1] = test system: PSMA expression in 22Rv1 cells; assay: PSMA protein expression by flow cytometry; type: cell-based; conditions: androgen-independent 22Rv1 cells, 0.08-5 μM darolutamide for 7 days
# Protocol: (§1) The effect of darolutamide and 225Ac-pelgifatamab on PSMA mRNA and protein expression in vitro was studied in VCaP and 22Rv1 prostate cancer cells. To assess PSMA protein expression, VCaP and 22Rv1 cells were treated with 0.08-5 μM darolutamide for 7 days and PSMA expression was determined by flow cytometry using the murine PSMA-specific monoclonal antibody (mAb) J591 (prepared in-house). To assess FOLH1 gene expression, 22Rv1 cells were treated with 2 μM darolutamide and/or 0.15 kBq/mL 225Ac-pelgifatamab for 24 or 48 h. RNA was extracted with the RNeasy Plus Mini Kit (Qiagen), transcribed to cDNA using SuperScript IV VILO Master Mix (Invitrogen), and analyzed by qPCR.
# [2] = test system: PSMA expression in VCaP cells; assay: PSMA protein expression by flow cytometry; type: cell-based; conditions: androgen-dependent VCaP cells, 0.08-5 μM darolutamide for 7 days
# Protocol: as §1
# [3] = test system: PSMA expression in 22Rv1 tumors; assay: In vivo PSMA protein expression in 22Rv1 tumors by flow cytometry; parameters: species or system mice; conditions: isolated 22Rv1 tumors, darolutamide 100 mg/kg BID p.o. for 18 days
# Protocol: In vivo expression of PSMA protein was evaluated in 22Rv1 prostate tumor-bearing male nude (nu/nu) mice treated with vehicle or darolutamide (100 mg/kg, BID, p.o) for 18 days. 22Rv1 tumors were extracted (n=2) and dissociated tumor cells were analyzed by flow cytometry using the J591 antibody.
# [4] = Radiochemical purity (RCP) of Pelgifatamab TACs by iTLC; type: physicochemical; conditions: for RCP (radiochemical purity): iTLC after Ac-225 labeling at 2 MBq/mg, macropa at room temperature, DOTA at 60° C., one hour
# Protocol: The mixture was incubated for one hour at room temperature for macropa-Pelgifatamab while the two DOTA-Pelgifatamab ACCs were incubated for one hour at 60° C. on a heating block. The RCP of the TACs was measured by instant thin layer chromatography using citrate buffer for elution, three replicates for each sample. […] The measurement of radioactivity was done with a Digital Gamma-Ray Spectrometer (DSPEC-50, Ortec). The activities were measured at least 6 hours after radiolabeling to allow daughter nuclides to be in equilibrium with Ac-225. […] Pelgifatamab-macropa and the PSMA binding antibody J591 conjugated with DOTA were both labeled with actinium-225. Labeling was performed at room temperature. J591-DOTA was also labeled at 60° C. Radiochemical purity was determined by instant thin-layer chromatography (iTLC). Labeled and free actinium-225 were counted in a germanium detector using actinium-225 specific energy lines. Actinium-225-labeling of pelgifatamab was efficient at room temperature as compared with actinium-225-labeling of the murine monoclonal PSMA antibody J591 (225Ac-J591, FIG. 8).
# [5] = Size exclusion chromatography (SEC-UV) of Pelgifatamab TACs; type: physicochemical; conditions: SEC-UV of TAC after radiolabeling
# Protocol: Purity of the TACs were determined by SEC-UV. The method separates higher aggregate, dimer and fragments from the ACC monomer. The separation was done using a Acquity UPLC Protein BEH SEC, 1.7 μm, 200 Å, 4.6×300 mm column operated at 30° C. The mobile phase was 170 mM Ammonium acetate and 300 mM NaCl containing 10% 2-propanol and 0.1 mM DCTA. The flowrate was 0.3 mL/min, and the ACCs were detected at UV 280 nm. The analysis was performed on an Agilent 1200 series HPLC with 35 μL injections.
# C4-2 cells = conditions: 5 days
# Protocol: (§2) Cells were treated for 5 days and subsequentially cell viability was determined using CellTiterGlo (Promega).
# [6] = test system: PSMA-expressing prostate cancer xenograft model MDA PCa 2b; conditions: 72-504 hours
# Protocol: Biodistribution of Ac-225-macropa-Pelgifatamab was investigated in the PSMA-expressing prostate cancer xenograft model MDA PCa 2b. Female RJ: NMRI-Foxn1nu/nu mice were implanted with testosterone pellets subcutaneously and were inoculated with 1×10^6 MDA PCa 2b cells on the right flank. Animals were pre-treated with 200 μg/mouse unspecific IgG2a antibody 24 hours prior to hot dosing. Animals were treated with 300 kBq/kg Ac-225-macropa-Pelgifatamab IV at a total protein dose of 0.75 mg/kg. In a separate in vivo study the xenograft model MDA PCa 2b was treated with 250 kBq/kg Ac-225-DOTA-Pelgifatamab at a protein dose of 0.14 mg/kg. In both studies, animals were sacrificed 72, 168, 336, and 504 hours post treatment and 225Ac in blood, tumor, liver, kidney, spleen and femur was determined.
# XRCC2 = assay: Gene expression by RT-qPCR in 22Rv1 cells; type: cell-based; conditions: 24 or 48 h
# [7] = test system: C4-2 prostate cancer cells xenograft; assay: In vivo efficacy study in C4-2 xenograft; parameters: species or system mice; conditions: single dose IV 300 kBq/kg, total antibody dose 0.14 mg/kg
# Protocol: The compounds Ac-225-macropa-Pelgifatamab, Ac-225-DOTA-Pelgifatamab and isotype-macropa were labeled with 225Ac. Mice xenografted with C4-2 prostate cancer cells were treated with a single dose IV of 300 kBq/kg with a total antibody dose of 0.14 mg/kg. […] Body weight loss was less than 10% for all targeted treatment groups. Effects on the hematopoietic system were determined by WBC counts at the end of the experiment (FIG. 16 (C)).
# CDKN1A = assay: Gene expression by RT-qPCR in 22Rv1 cells; type: cell-based; conditions: 24 or 48 h
# KUCaP-1 tumors = assay: In vivo antitumor efficacy in KUCaP-1 model; parameters: species or system mice
# Text: In a KUCaP-1 efficacy study, male scid/scid mice (8 weeks, 22 g, Janvier Labs) were implanted s.c. with 5×5×5 mm KUCaP-1 tumor fragments. When the tumors reached an average size of 220 mm^3, mice were randomized (n=9-10 mice/group), and the next day, treated with vehicle or a single i.v. injection of isotype control (300 kBq/kg, […] mg/kg). In addition, for one treatment group, tumors were allowed to reach a size of 470 mm^3, before treatment with a single dose of 300 kBq/kg ^225Ac-pelgi. The study was terminated on day 72 after tumor cell inoculation.
# DU-145 cells = conditions: PSMA negative DU-145 cells, 5 days
# Protocol: as §2
# 22Rv1 cells = 22Rv1 cells (printed 22R1), 5 days
# Protocol: as §2
# [8] = test system: LNCaP prostate cancer model; assay: In vivo antitumor efficacy in LNCaP model; parameters: species or system mice; conditions: total antibody dose 0.75 mg/kg
# Protocol: Antitumor efficacy of 225Ac-pelgifatamab was assessed in the LNCaP prostate cancer model: Male SCID mice (6 weeks, 22 g, Janvier Labs) were implanted s.c. with testosterone pellets (12.5 mg, 4 mm) and 1-3 days later, inoculated s.c. with 5×10^6 LNCaP cells. When the tumors reached an average size of 160 mm^3, mice were randomized (n=10 mice/group), and two days later, treated with vehicle or a single i.v. dose of ^225Ac-pelgifatamab (70, 125, or 250 kBq/kg, total antibody dose 0.75 mg/kg). The study was terminated on day 112 after tumor cell inoculation.
# PC-3 cells = conditions: PSMA negative PC-3 cells, 5 days
# Protocol: as §2
# LNCaP cells = conditions: 5 days
# Protocol: as §2
# [9] = 300 kBq/kg IV, 0.75 mg/kg total protein
molecule,measurement,setting,value
"CC(O)c1cc(C(=O)N[C@@H](C)Cn2ccc(-c3ccc(C#N)c(Cl)c3)n2)[nH]n1 (some centres unmarked) [Darolutamide, darolutamide]",T/C,"22Rv1 tumors; 100 mg/kg, BID, p.o.",0.78
same,induction of PSMA expression,[1],> 2 fold
same,induction of PSMA expression,[2],more than 10 fold
same,increase in PSMA expression compared with vehicle,[3],50 fold
Ac-225-DOTA-Pelgifatamab CAR 5.7,RCP (radiochemical purity),[4],99.2%
same,Aggregate,[5],18.4 Area % (UV)
same,Dimer,[5],3.0 Area % (UV)
same,Monomer,[5],78.6 Area % (UV)
Ac-225-DOTA-Pelgifatamab CAR 12.7,RCP (radiochemical purity),[4],99.5%
same,Aggregate,[5],30.5 Area % (UV)
same,Dimer,[5],4.8 Area % (UV)
same,Monomer,[5],64.7 Area % (UV)
Ac-225-macropa-Pelgifatamab,cytotoxicity,C4-2 cells,Strong cytotoxicity
same,radioactivity in the liver compared with 225Ac-DOTA-Pelgifatamab,[6],lower and over time decreasing radioactivity
same,uptake in the spleen compared with 225Ac-DOTA-Pelgifatamab,[6],less uptake
same,accumulation in normal organs,[6]; [9],generally low and transient
same,tumor accumulation of 225Ac,[6]; [9],strong and persistent tumor accumulation
same,clearance from the bone compared with 225Ac-DOTA-Pelgifatamab,[6]; femur,improved clearance
same,expression of XRCC2,XRCC2,decreased
same,antitumor activity compared with Ac-225-DOTA-Pelgifatamab,[7],higher antitumor activity
same,RNA expression of CDKN1A,CDKN1A,increased
same,T/Cvolume ratio,KUCaP-1 tumors; 75 kBq/kg single dose,0.55
same,T/Cvolume ratio,KUCaP-1 tumors; 150 kBq/kg single dose,0.44
same,T/Cvolume ratio,KUCaP-1 tumors; 300 kBq/kg single dose,0.26
same,effect on large tumors,"KUCaP-1 tumors; single dose 300 kBq/kg, tumors 470 mm^3 at treatment start",induced tumor regression
same,T/C,"22Rv1 tumors; 75 kBq/kg, single dose, i.v.",0.71
same,T/C,"22Rv1 tumors; 300 kBq/kg, single dose, i.v.",0.41 ***
same,cytotoxicity,DU-145 cells,little cytotoxicity
same,cytotoxicity,22Rv1 cells,Strong cytotoxicity
same,RCP (radiochemical purity),[4],99.9%
same,radiochemical purity,[4]; iTLC after radiolabeling at room temperature (FIG. 8),100%
same,T/Cvolume (treatment/control) ratio,[8]; 70 kBq/kg single dose i.v.,0.00
same,T/Cvolume (treatment/control) ratio,[8]; 125 kBq/kg single dose i.v.,0.00
same,T/Cvolume (treatment/control) ratio,[8]; 250 kBq/kg single dose i.v.,0.00
same,Dimer,[5],0.5 Area % (UV)
same,Monomer,[5],99.5 Area % (UV)
same,cytotoxicity,PC-3 cells,little cytotoxicity
same,cytotoxicity,LNCaP cells,Strong cytotoxicity
